Results as given in patent US20110010785A1, “PRODUCTS AND THEIR USE FOR THE DIAGNOSIS, PREVENTION AND/OR CARE OF HUMAN AND/OR ANIMAL PATHOLOGIES CHARACTERISED BY THE ANOMALOUS DEPOSITION OF B-AMYLOID AND/OR AMYLOID-LIKE SUBSTANCE IN HUMAN AND/OR ANIMAL ORGANS AND TISSUES, AND SCREENING METHOD FOR DETERMINING THE RISK OF SUCH PATHOLOGIES” (Fondazione I.R.C.C.S Istituto Neurologico "Carlo Besta", priority 2007, published 2011).

Biological target: T1, wild-type Aβ1-40 (Homo sapiens, UniProt P05067)
T1 construct: lipophile probe (4-dodecylaminocarbonylfluorene-9-ylmethylsuccinimidyl carbonate), non-protein purification handle (N); made in house; host or cells: chemical solid phase synthesis (no expression host)
Experiment: Inhibition of amyloidogenesis: hexapeptides co-incubated with wild-type Aβ1-40 (ultrastructural and histochemical study)
Assay type: biochemical
Settings: for effect on fibrillogenesis of Aβ1-40: co-incubated with wild-type Aβ1-40, equimolar or in excess (hexapeptide:Aβ1-40=5:1)
Protocol: For the ultrastructural investigation, 5 μl of suspension of wild-type Aβ1-40, mutated Aβ1-40 and their equimolar mixture were drawn at incubation times in the range of 1 hour-20 days, deposited on nickel screen covered with Formvar-Carbon for 5 minutes, negatively coloured with an over-saturated solution of uranyl and observed under electronic microscope (EM109 Zeiss). On the twentieth day of incubation, aliquots of the samples were centrifuged at 15,000 g for 15 minutes. The pellets thus obtained were fixed in 2.5% glutaraldehyde in phosphate buffer, pH 7.4, post-fixed in 1% osmium tetroxide, dehydrated in acetone and included in epoxy rein (Spurr, Electron Microscopy Sciences). Ultrafine sections (500 Å) were collected on copper screens, coloured with uranyl acetate and lead citrate and observed under the electronic microscope.
In order to verify if and in what measure the aggregates were constituted by amyloid, 5 μl of solution of each sample, for the different incubation times, was collected on polylysinated slides (Bio-Optical), coloured with Congo Red and examined with polarised light microscope (Nikon Eclipse E-800).
The two hexapeptides were co-incubated with wild-type Aβ1-40 at equimolar concentration or in excess (hexapeptide:Aβ1-40=5:1). The mixtures were prepared for the ultrastructural and histochemical study as described in example 2.

T1 sequence (P05067 672-711): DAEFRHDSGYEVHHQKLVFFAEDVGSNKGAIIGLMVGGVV

Row | Substance | effect on fibrillogenesis of Aβ1-40 | inhibitory activity on fibrillogenesis relative to wild-type hexapeptide (co-incubated with wild-type Aβ1-40, equimolar or 5:1)
1 | DAEFRH | inhibit the fibrillogenesis of Aβ1-40 | 
2 | DVEFRH [synthetic peptide, first six amino acids of Aβ with valine in place of alanine in position 2] | inhibit the fibrillogenesis of Aβ1-40 | more active than the corresponding wild-type
